Measurements published in patent publication US20230310629A1 (Merck KGaA, published 2023).

Target: T1, MUC1 on WISH cells (human, UniProt P15941 24-1255)
T1 construct: whole, on cells; WISH cells also carry low levels of EGFR; also called MUC1-expressing cells (WISH)
Assay: cell binding on WISH cells

B1: 1993-H02 with an HT186-D11 light chain (anti-MUC1 antibody H02) (antibody, V domains shown)
VH: QMQLVQSEAELKKPGASVKVSCKASGYSFTSHFMHWVRQAPGQGLEWMGWIDPVTGGTKYAQNFQGWVTMTRDTSIRTAYLELSRLRSDDTAMYYCAREARADRGQFDKWGQGTLVTVAS
VL: QSVLTQPPSVSVAPGKTARITCGGNNIGSKSVHWYQQKPGQAPALVIYYGSNRPSGIPERFSGSNSGNTATLTISRVEAGDEADYYCQVWDSSSDWVFGGGTKLTVL
notes: One molecule is used here for both experiments
Kd: 23.9 nM
